Paper doi:10.1101/2023.11.30.569392

Target: T1, recTZF-WT (GST-TEV-TTP TZF) (Mus musculus, UniProt P22893 93-165)
T1 sequence: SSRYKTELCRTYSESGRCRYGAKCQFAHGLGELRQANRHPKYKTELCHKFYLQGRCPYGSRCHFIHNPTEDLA
Assay: EMSA

B1: Tnf-ARE (ssRNA)
RNA: AUUAUUUAUUAUUUAUUUAUUAUUUA
B1: binds.
